Measured values: patent US20090110686A1
Changes are numbered by the printed parent chain.

B1: anti-CCR5 antibody with heavy chain variable domain SEQ ID NO: 6 and light chain variable domain SEQ ID NO: 9, mutated IgG1 (IgG1v2) constant region (antibody, name in EU numbering, V domains shown)
VH: QVQLQESGPGLVKPSQSLSITCTVSGFPLGAFGVHWVRQSPGKGPEWLGVIWKGGNTDYNAAFKSRLRITKDNSKSQVFFRMNSLQTDDTATYYCAKVNLADAMDYWGQGTTVTVSS
VL: DIQMTQSPASLSASVGETVTITCRASGNAHGYLAWYQQKPGKAPKLLIYNTKTLAEGVPSRFSGSGSGTQFSLKINSAQPEDFGNYYCQHHYDLPRTFGGGTKVEIKR
B2: anti-CCR5 antibody with heavy chain variable domain SEQ ID NO: 8 and light chain variable domain SEQ ID NO: 10, mutated IgG1 (IgG1v2) constant region (antibody, name in EU numbering, V domains shown)
VH: B1 VH with P45L, T92I
VL: B1 VL with I48V
B3: anti-CCR5 antibody with heavy chain variable domain SEQ ID NO: 8 and light chain variable domain SEQ ID NO: 9, mutated IgG1 (IgG1v2) constant region (antibody, name in EU numbering, V domains shown)
VH: B1 VH with P45L, T92I
VL: B1 VL
B4: anti-CCR5 antibody with heavy chain variable domain SEQ ID NO: 7 and light chain variable domain SEQ ID NO: 9, mutated IgG1 (IgG1v2) constant region (antibody, name in EU numbering, V domains shown)
VH: B1 VH with P45L
VL: B1 VL
B5: anti-CCR5 antibody with heavy chain variable domain SEQ ID NO: 6 and light chain variable domain SEQ ID NO: 10, mutated IgG1 (IgG1v2) constant region (antibody, name in EU numbering, V domains shown)
VH: B1 VH
VL: B1 VL with I48V
B6: anti-CCR5 antibody with heavy chain variable domain SEQ ID NO: 7 and light chain variable domain SEQ ID NO: 10, mutated IgG1 (IgG1v2) constant region (antibody, name in EU numbering, V domains shown)
VH: B1 VH with P45L
VL: B1 VL with I48V

target: human CC chemokine receptor CCR5 (human) (UniProt P51681); experiment: cell-based or functional assay

Binder	IC50, cell-cell fusion assay (gp160-expressing HeLa cells with CEM.NKR-CCR5-Luc cells, luciferase)
B1	0.108 µg/mL
B2	0.076 µg/mL
B3	0.132 µg/mL
B4	0.046 µg/mL
B5	0.399 µg/mL
B6	0.152 µg/mL
